Blank lines part the entries; values can stand above or below the molecule they belong to. Ends that are not written are not given here.
Experiments:
IGF-1 receptor = IGF-1 receptor (Homo sapiens, UniProt P08069); experiment: IGF-1 receptor competition binding assay (scintillation proximity); set-up: expressed in transfected cells; plasma membrane fragments; details: Table 9; IGF-1 Receptor
[1] = target: T1, type A insulin receptor (IR-A) (Homo sapiens, UniProt P06213); experiment: Receptor kinase activity (phosphorylation) assay, type A insulin receptor; format: cell-based
T1 construct: expressed in transfected cells; host or cells: HEK293

[2] = target: T2, type B insulin receptor (IR-B) (Homo sapiens, UniProt P06213); experiment: Receptor kinase activity (phosphorylation) assay, type B insulin receptor; format: cell-based
T2 construct: expressed in transfected cells; host or cells: HEK293

IGF-1 receptor, sequence (P08069 31-736 limits assumed): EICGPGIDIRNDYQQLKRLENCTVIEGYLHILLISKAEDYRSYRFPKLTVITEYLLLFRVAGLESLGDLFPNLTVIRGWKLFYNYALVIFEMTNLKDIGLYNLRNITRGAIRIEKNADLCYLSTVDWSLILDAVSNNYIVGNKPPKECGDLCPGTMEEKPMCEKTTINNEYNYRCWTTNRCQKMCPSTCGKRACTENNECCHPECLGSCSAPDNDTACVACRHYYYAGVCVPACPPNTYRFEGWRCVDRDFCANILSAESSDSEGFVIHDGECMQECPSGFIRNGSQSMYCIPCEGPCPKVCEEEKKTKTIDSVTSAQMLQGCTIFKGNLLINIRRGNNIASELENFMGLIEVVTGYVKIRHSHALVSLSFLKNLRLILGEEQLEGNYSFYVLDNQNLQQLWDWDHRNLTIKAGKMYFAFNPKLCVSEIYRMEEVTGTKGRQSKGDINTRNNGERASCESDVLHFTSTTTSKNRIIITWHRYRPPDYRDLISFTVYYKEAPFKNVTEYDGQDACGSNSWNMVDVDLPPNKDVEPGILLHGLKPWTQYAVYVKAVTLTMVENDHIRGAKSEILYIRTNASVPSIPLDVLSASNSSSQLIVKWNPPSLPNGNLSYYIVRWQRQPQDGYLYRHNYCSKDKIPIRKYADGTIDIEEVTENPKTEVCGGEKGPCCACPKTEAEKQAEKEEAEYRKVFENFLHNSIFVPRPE
IGF-1 receptor, sequence (P08069 741-1367 partner limits assumed): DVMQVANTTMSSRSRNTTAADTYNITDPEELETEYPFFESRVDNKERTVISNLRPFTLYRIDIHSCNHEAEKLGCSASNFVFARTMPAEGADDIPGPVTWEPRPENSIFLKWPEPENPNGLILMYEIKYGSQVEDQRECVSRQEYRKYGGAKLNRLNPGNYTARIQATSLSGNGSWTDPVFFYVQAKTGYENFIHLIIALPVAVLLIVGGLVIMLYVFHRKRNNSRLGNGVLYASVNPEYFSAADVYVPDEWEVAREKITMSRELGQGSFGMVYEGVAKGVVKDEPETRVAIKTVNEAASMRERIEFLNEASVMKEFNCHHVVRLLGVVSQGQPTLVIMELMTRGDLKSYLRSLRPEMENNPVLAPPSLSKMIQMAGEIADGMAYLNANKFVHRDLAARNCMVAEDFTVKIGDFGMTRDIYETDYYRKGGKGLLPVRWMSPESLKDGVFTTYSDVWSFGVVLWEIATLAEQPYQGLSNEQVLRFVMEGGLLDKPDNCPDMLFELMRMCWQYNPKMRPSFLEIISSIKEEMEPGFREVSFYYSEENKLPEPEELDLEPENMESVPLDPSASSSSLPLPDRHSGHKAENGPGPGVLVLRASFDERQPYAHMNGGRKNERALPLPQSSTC

Molecule: CC[C@H](C)[C@H](NC(=O)CN)C(=O)N[C@H](C(=O)N[C@@H](CC(=O)O)C(=O)N[C@@H](CCC(=O)O)C(=O)N[C@H]1CSSC[C@@H]2NC(=O)[C@H](CO)NC(=O)[C@H](CCCNC(=N)N)NC(=O)[C@H](Cc3ccccc3)NC(=O)[C@H](CSSC[C@H](NC(=O)[C@H](CC(C)C)NC(=O)[C@H](Cc3c[nH]cn3)NC(=O)[C@H](CCC(N)=O)NC(=O)[C@H](CC(N)=O)NC(=O)[C@@H](NC(=O)[C@@H](N)Cc3ccccc3)C(C)C)C(=O)NCC(=O)N[C@@H](C)C(=O)N[C@@H](CCC(=O)O)C(=O)N[C@@H](CC(C)C)C(=O)N[C@@H](C(C)C)C(=O)N[C@@H](CC(=O)O)C(=O)N[C@@H](C)C(=O)N[C@@H](CC(C)C)C(=O)N[C@@H](Cc3ccc(O)cc3)C(=O)N[C@@H](CC(C)C)C(=O)N[C@@H](C(C)C)C(=O)N[C@H](C(=O)NCC(=O)N[C@@H](CC(=O)O)C(=O)N[C@@H](CCCNC(=N)N)C(=O)NCC(=O)N[C@@H](Cc3ccccc3)C(=O)N[C@@H](Cc3ccc(O)cc3)C(=O)N[C@@H](Cc3ccccc3)C(=O)N[C@@H](CC(N)=O)C(=O)N[C@@H](CCCCN)C(=O)N3CCC[C@H]3C(=O)N[C@H](C(N)=O)[C@@H](C)O)CSSC[C@@H](C(=O)N[C@@H](C)C(N)=O)NC(=O)[C@H](Cc3ccc(O)cc3)NC(=O)[C@H](CCSC)NC(=O)[C@H](CCC(=O)O)NC(=O)[C@H](CC(C)C)NC(=O)[C@H](CCCNC(=N)N)NC(=O)[C@H](CCCNC(=N)N)NC(=O)[C@H](CC(C)C)NC(=O)[C@H](CC(=O)O)NC2=O)NC1=O)C(C)C [IGF-1 A:In B(1-5)-IGF-1 B(YL) (6-30)]
% IGF-1 (in test) (IGF-1 receptor): 3.6%

Molecule: CC[C@H](C)[C@H](NC(=O)CN)C(=O)N[C@H](C(=O)N[C@@H](CC(=O)O)C(=O)N[C@@H](CCC(=O)O)C(=O)N[C@H]1CSSC[C@@H]2NC(=O)[C@H](CO)NC(=O)[C@H](CCCNC(=N)N)NC(=O)[C@H](Cc3ccccc3)NC(=O)[C@H](CSSC[C@H](NC(=O)[C@H](CC(C)C)NC(=O)[C@H](Cc3c[nH]cn3)NC(=O)[C@H](CCC(N)=O)NC(=O)[C@H](CC(N)=O)NC(=O)[C@@H](NC(=O)[C@@H](N)Cc3ccccc3)C(C)C)C(=O)NCC(=O)N[C@@H](CO)C(=O)N[C@@H](Cc3c[nH]cn3)C(=O)N[C@@H](CC(C)C)C(=O)N[C@@H](C(C)C)C(=O)N[C@@H](CCC(=O)O)C(=O)N[C@@H](C)C(=O)N[C@@H](CC(C)C)C(=O)N[C@@H](Cc3ccc(O)cc3)C(=O)N[C@@H](CC(C)C)C(=O)N[C@@H](C(C)C)C(=O)N[C@H](C(=O)NCC(=O)N[C@@H](CC(=O)O)C(=O)N[C@@H](CCCNC(=N)N)C(=O)NCC(=O)N[C@@H](Cc3ccccc3)C(=O)N[C@@H](Cc3ccc(O)cc3)C(=O)N[C@@H](Cc3ccccc3)C(=O)N[C@@H](CC(N)=O)C(=O)N[C@@H](CCCCN)C(=O)N3CCC[C@H]3C(=O)N[C@H](C(N)=O)[C@@H](C)O)CSSC[C@@H](C(=O)N[C@@H](C)C(N)=O)NC(=O)[C@H](Cc3ccc(O)cc3)NC(=O)[C@H](CCSC)NC(=O)[C@H](CCC(=O)O)NC(=O)[C@H](CC(C)C)NC(=O)[C@H](CCCNC(=N)N)NC(=O)[C@H](CCCNC(=N)N)NC(=O)[C@H](CC(C)C)NC(=O)[C@H](CC(=O)O)NC2=O)NC1=O)C(C)C [IGF-1 A:In (1-17)-IGF-1 B(18-30)]
IC80 (IGF-1 receptor): 0.0625 µM

Molecule: B^1(H5,10Y16L17R29)30-C^1des9-12-A^1(H8,K14,N18,21) (GPEHLCGAHLVDALYLVCGDRGFYFNKRTGYGSSSRRGIVDECCHRSCDLKRLENYCN) [DP8Mut3KA14]
IR-A ([1]; Table 14): 132.2%
IR-B ([2]; Table 14): 12.6%

Molecule: B^1(H5,10Y16L17K29)29-A^1(H8,N18,21) (GPEHLCGAHLVDALYLVCGDRGFYFNKKGIVDECCHRSCDLRRLENYCN) [DP3(SC)]
IR-A ([1]; Table 14): 0.03%

Molecule: B^1(H5,10Y16L17K29)29:A^1(H8,N18,21) (chain 1 GPEHLCGAHLVDALYLVCGDRGFYFNKK; chain 2 GIVDECCHRSCDLRRLENYCN) [DP3(TC)]
IR-A ([1]; Table 14): 159.8%
IR-B ([2]; Table 14): 33.1%

B1: GE5W-B^1(H5,10Y16L17)25-C^1-A^1(A1H8N18,21) (protein)
chain: GEEEEEWGPEHLCGAHLVDALYLVCGDRGFYGYGSSSRRAPQTAIVDECCHRSCDLRRLENYCN
IR-A ([1]; Table 13): 2.1%
IR-B ([2]; Table 13): 0.7%

Further lines, results first:

% IGF-1 (in test) (IGF-1 receptor): 3.3%
Molecule: CC[C@H](C)[C@H](NC(=O)CN)C(=O)N[C@H](C(=O)N[C@@H](CC(=O)O)C(=O)N[C@@H](CCC(=O)O)C(=O)N[C@H]1CSSC[C@@H]2NC(=O)[C@H](CO)NC(=O)[C@H](CCCNC(=N)N)NC(=O)[C@H](Cc3ccccc3)NC(=O)[C@H](CSSC[C@H](NC(=O)[C@H](CC(C)C)NC(=O)[C@@H](NC(=O)[C@H](CCC(=O)O)NC(=O)[C@@H]3CCCN3C(=O)CN)[C@@H](C)O)C(=O)NCC(=O)N[C@@H](C)C(=O)N[C@@H](CCC(=O)O)C(=O)N[C@@H](CC(C)C)C(=O)N[C@@H](C(C)C)C(=O)N[C@@H](CC(=O)O)C(=O)N[C@@H](C)C(=O)N[C@@H](CC(C)C)C(=O)N[C@@H](Cc3ccc(O)cc3)C(=O)N[C@@H](CC(C)C)C(=O)N[C@@H](C(C)C)C(=O)N[C@H](C(=O)NCC(=O)N[C@@H](CC(=O)O)C(=O)N[C@@H](CCCNC(=N)N)C(=O)NCC(=O)N[C@@H](Cc3ccccc3)C(=O)N[C@@H](Cc3ccc(O)cc3)C(N)=O)CSSC[C@@H](C(=O)N[C@@H](C)C(N)=O)NC(=O)[C@H](Cc3ccc(O)cc3)NC(=O)[C@H](CCSC)NC(=O)[C@H](CCC(=O)O)NC(=O)[C@H](CC(C)C)NC(=O)[C@H](CCCNC(=N)N)NC(=O)[C@H](CCCNC(=N)N)NC(=O)[C@H](CC(C)C)NC(=O)[C@H](CC(=O)O)NC2=O)NC1=O)C(C)C [IGF-1 A:B (E10Y16L17) DPI]

IR-A ([1]; Table 14): 6.4%
IR-B ([2]; Table 14): 2.1%
Molecule: B1,A14-10K B^1(H5,10Y16L17R29)29:A^1(H8K14N18,21) (chain 1 GPEHLCGAHLVDALYLVCGDRGFYFNKR; chain 2 GIVDECCHRSCDLKRLENYCN) [di-10K-TC]

IR-A ([1]; Table 14): 1.7%
IR-B ([2]; Table 14): 0.2%
Molecule: B1,A14-10K B^1(H5,10Y16L17R29)30-C^1des9-12-A^1(H8,K14,N18,21) (GPEHLCGAHLVDALYLVCGDRGFYFNKRTGYGSSSRRGIVDECCHRSCDLKRLENYCN) [MIU-79]

% Insulin Activity IR-A ([1]; Table 12): 3.1%
IR-A ([1]; Table 13): 4.5%
Phosphorylation (EC50) % IR-A ([1]; Table 17): 4.5%
% Insulin Activity IR-B ([2]; Table 12): 1.1%
IR-B ([2]; Table 13): 1.1%
Phosphorylation (EC50) % IR-B ([2]; Table 17): 1.1%
Molecule: B1-PEG20K MIU-35 (GPEHLCGAHLVDALYLVCGDRGFYGYGSSSRRAPQTGIVDECCHRSCDLRRLENYCN; not fully specified (N-terminus); ends and bridges not checked; also: PEG20K at B1) [#39]

IR-A ([1]; Table 13): 20.4%
IR-B ([2]; Table 13): 8.4%
Molecule: B^1(H5,10Y16L17)25-C^1-A^1(T8N18,21) (GPEHLCGAHLVDALYLVCGDRGFYGYGSSSRRAPQTGIVDECCTRSCDLRRLENYCN) [Thr,A8]

— patent US9593156B2 (priority 2012, dated 2017)
